According to the supplement of paper PMC9732359:
± gives the uncertainty stated by the source.

Test: protein stability index of a GFP-peptide fusion (yeast GPS) (PSI 1-4); higher = more stable; sorted into four equal gates, so the index is relative within each strain
Summary of the method: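 The protein stability index of a peptide was calculated by multiplying its read frequency in each gate by that gate's number and adding the products. The peptides were tiled 17-residue stretches of yeast proteins, fused downstream of GFP on a Cherry-expressing plasmid and carried in yeast as a pooled library. Mid-log cultures in leucine-free medium were sorted into four equal gates by GFP/Cherry ratio, and each gate's plasmids were PCR-amplified and Illumina-sequenced.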

| Sequence | protein stability index (doa10∆) | protein stability index (pdr5∆) | protein stability index (san1∆) | protein stability index (ubr1∆) |
| --- | --- | --- | --- | --- |
| SVSLVDEFPSELSDSDR [SIR4] | 2.68 ± 0.071 | 2.57 ± 0.058 | 2.64 ± 0.067 | 2.16 ± 0.057 |
| LKTADNRDRSFQLLEPL [PGD1] | 3.29 ± 0.058 | 3.38 ± 0.086 | 3.38 ± 0.039 | 3.18 ± 0.074 |
| RVAKGSGTSVFEVEMIL [SRP54] | 3.28 ± 0.071 | 3.26 ± 0.099 | 3.39 ± 0.076 | 3.42 ± 0.12 |
| SYFYRRIHVNPSYYGVR [BRR2] | 1.5 ± 0.064 | 1.85 ± 0.057 | 1.61 ± 0.07 | 1.76 ± 0.029 |
| NLEKNYLAKLSKQLSLE [IRR1] | 3.19 ± 0.14 | 3.34 ± 0.12 | 2.55 ± 0.13 | 3.14 ± 0.084 |
| GIRWELISRLCPNSTGA [RPT1] | 2.04 ± 0.047 | 2.25 ± 0.05 | 2.12 ± 0.076 | 2.19 ± 0.038 |
| RTIGIAVDHRRQNRNQE [RPL13A] | 2.65 ± 0.18 | 2.7 ± 0.13 | 3.14 ± 0.16 | 2.86 ± 0.22 |
| DPAHSLNYTVINFKSRE [AAR2] | 3.07 ± 0.054 | 3.1 ± 0.059 | 3.14 ± 0.046 | 3.22 ± 0.037 |
| IMECCQKNDTAAFKDIA [RRP40] | 3.08 ± 0.16 | 3.54 ± 0.17 | 2.95 ± 0.084 | 3.54 ± 0.077 |
| QGLKLAKKHKLNAITLD [SMC3] | 2.4 ± 0.21 | 2.64 ± 0.29 |  |  |
| TKKKSKFMTNSTAFVPT [ARP9] | 2.65 ± 0.054 | 2.79 ± 0.045 | 2.47 ± 0.058 | 2.77 ± 0.038 |
| SLLDKPDEAIEKVFNAY [FAS1] | 3.15 ± 0.085 | 3.34 ± 0.099 | 3.2 ± 0.066 | 3.29 ± 0.078 |
| YLLEELESYLIVHHPYQ [SSN8] | 2.56 ± 0.058 | 2.45 ± 0.06 | 2.43 ± 0.056 | 2.36 ± 0.044 |
| EVFEFKTFNKIQSQVFE [BRR2] |  | 3.29 ± 0.19 |  | 3.08 ± 0.22 |
| VGGHNVTIREQINIMPS [SIR3] | 2.91 ± 0.069 | 2.8 ± 0.066 | 2.71 ± 0.071 | 2.94 ± 0.067 |
| LLENSVDKNFDKLELYV [MTW1] | 3.03 ± 0.052 | 2.64 ± 0.065 | 3.15 ± 0.065 | 2.97 ± 0.048 |
| FTIRGFKQKLNELLKCK [MTW1] | 3.05 ± 0.059 | 2.92 ± 0.073 | 2.93 ± 0.064 | 3.17 ± 0.046 |
| LDISVFLLEKAGERKIP [TAF14] | 2.26 ± 0.078 | 2.43 ± 0.072 | 2.44 ± 0.063 | 2.16 ± 0.061 |
| HKQIHTTIFVKSTTPYV [POP7] | 2.15 ± 0.045 | 2.31 ± 0.05 | 2.15 ± 0.062 | 1.82 ± 0.03 |
| KMDMICRNINRKHRNAQ [DIS3] | 2.2 ± 0.074 | 2.5 ± 0.11 | 2.37 ± 0.086 | 3.12 ± 0.12 |
| QQRGITYLNEVLEKDAA [YGR119C/NUP57] | 3.16 ± 0.093 | 3.27 ± 0.079 | 3.33 ± 0.061 | 3.13 ± 0.09 |
| VASRHPSESEHPIRVLM [YDL116W/NUP84] |  | 3 ± 0.25 | 2.9 ± 0.23 |  |
| VLIAQERSAGNIVQVFK [RPB2] | 2.85 ± 0.13 | 3.39 ± 0.23 | 2.97 ± 0.087 | 3.11 ± 0.064 |
| EALVQAFAFCIPVYCFS [YCG1] | 1.68 ± 0.071 | 1.83 ± 0.056 | 1.73 ± 0.16 | 1.51 ± 0.064 |
| SVFDATSDPVMHKQLAY [RPN1] | 2.28 ± 0.11 | 2.17 ± 0.077 | 1.79 ± 0.14 | 1.96 ± 0.082 |
| GRFLRVPKEGLFYFDSS [BRR2] | 3.18 ± 0.11 | 3.32 ± 0.073 | 3.3 ± 0.081 | 3.1 ± 0.054 |
| KRKVLELKKKRKIKRLE [SRP72] | 3.24 ± 0.077 | 3.2 ± 0.095 | 3.38 ± 0.1 | 3.29 ± 0.058 |

| Sequence | protein stability index (doa10∆) | protein stability index (pdr5∆) | protein stability index (san1∆) | protein stability index (ubr1∆) |
| --- | --- | --- | --- | --- |
| RFKSQFLYVLIPAGIYW [QCR8] | 1.75 ± 0.14 | 2.15 ± 0.069 | 2.07 ± 0.12 | 2.37 ± 0.092 |
| PSLEVASEYIETLGLKY [FAS1] | 3.02 ± 0.069 | 3.3 ± 0.082 | 3.21 ± 0.07 | 3.05 ± 0.067 |
| AAVIALGFVLLRDYTTV [RPN2] | 1.59 ± 0.066 | 1.21 ± 0.081 | 1.22 ± 0.082 | 1.27 ± 0.048 |
| TAASEARKHKLKTLVQG [RPS27A] | 2.1 ± 0.24 | 2.75 ± 0.22 |  | 3.04 ± 0.18 |
| ISQVSSIHAIGSIKEDY [RPB7] | 2.27 ± 0.077 | 2.65 ± 0.067 | 2.32 ± 0.084 | 2.79 ± 0.1 |
| TRDVEPENLQVTSEKYP [BRR2] | 2.75 ± 0.1 | 3.35 ± 0.18 |  | 3.13 ± 0.11 |
| TASSEASAGSKEGASTN [YMR153W/NUP53] | 3.09 ± 0.2 | 3.23 ± 0.14 | 3.32 ± 0.16 | 3.39 ± 0.12 |
| QSKLKDVVEYLDKVINK [RPN8] | 2.73 ± 0.094 | 2.32 ± 0.055 | 2.63 ± 0.073 | 2.55 ± 0.046 |
| HRIGQKKQVHVYRFVTE [ISW2] | 2.14 ± 0.054 | 2.33 ± 0.051 | 2.28 ± 0.075 | 2.12 ± 0.038 |
| GWWGHMGGPKQKGITSY [QCR8] | 3.16 ± 0.072 | 2.13 ± 0.08 | 1.41 ± 0.14 | 1.67 ± 0.075 |
| SDTSKPAFTFGAQKDNE [YJL041W/NSP1] | 3.32 ± 0.094 | 3.32 ± 0.087 | 3.36 ± 0.074 | 3.48 ± 0.059 |
| SLSIKLATLHYQKKQYK [RPN6] | 1.33 ± 0.064 | 1.28 ± 0.061 | 1.34 ± 0.11 | 1.34 ± 0.079 |
| IETIGHLITKEEIMHGL [RPN5] | 2.82 ± 0.089 | 3.31 ± 0.14 | 3.13 ± 0.079 | 2.97 ± 0.067 |
| AAAFSQQQNASSKLYQM [GAL11] | 2.71 ± 0.097 | 2.86 ± 0.071 | 2.82 ± 0.045 | 3.25 ± 0.072 |
| SSYEEFLERFDFYTRHH [ITC1] | 3.19 ± 0.13 | 3.1 ± 0.083 | 3.03 ± 0.073 | 3.1 ± 0.081 |
| SAGKGISSSAIPYSRNA [RPS13] | 2.61 ± 0.037 | 2.58 ± 0.041 | 2.36 ± 0.048 | 2.21 ± 0.029 |
| NNYPNVELTYSLNNSDS [BRR2] | 2.99 ± 0.14 | 2.42 ± 0.18 |  |  |
| IRYNSVEIQEVPRTADR [RPC82] | 2.52 ± 0.063 | 2.64 ± 0.044 | 2.88 ± 0.079 | 2.79 ± 0.048 |
| GGTSDMNYLLDNKINEI [CSI1] | 2.85 ± 0.11 | 2.87 ± 0.087 | 3.17 ± 0.059 | 3.25 ± 0.078 |
| PGQKMSLFSHRKHTRGD [BRN1] | 3.34 ± 0.23 | 2.95 ± 0.21 | 3.31 ± 0.15 | 3.22 ± 0.062 |
| SYRGVDLEKLLEMSTED [RPS15] | 2.76 ± 0.14 | 2.86 ± 0.12 | 2.27 ± 0.2 | 3.19 ± 0.083 |
| INELTLLVQKRFKYAPG [RPS3] | 2.83 ± 0.2 | 2.81 ± 0.14 | 2.75 ± 0.12 | 2.96 ± 0.13 |
| APLVLLSALDHYERTQT [RPN8] | 2.45 ± 0.051 | 2.45 ± 0.053 | 2.39 ± 0.057 | 2.42 ± 0.039 |
| KPYSGKLLKVCLTMFED [ECM29] | 2.18 ± 0.056 | 2.17 ± 0.058 | 2.67 ± 0.045 | 2.36 ± 0.058 |
| GKTLAFVIPILIKMSRS [PRP28] | 1.38 ± 0.071 | 1.62 ± 0.079 | 1.22 ± 0.19 |  |
| DMATGSNDTTAFNDSCV [SRB8] | 2.73 ± 0.05 | 3.07 ± 0.06 | 3.14 ± 0.045 | 2.86 ± 0.037 |
| IIFASTKLGFTFTIKEF [SNU114] | 2.37 ± 0.078 | 2.44 ± 0.059 | 1.83 ± 0.074 | 2.56 ± 0.066 |
